The values below come from publication PMC11601812.

For assay [1], the target named is progesterone receptor isoform A (PR-A), full-length, Strep II tagged (human) (UniProt P06401). Kind of assay: SEC-MALS; R5020-bound PR-A, SRC3 and p300 mixed with PRE DNA; Superose 6 Increase; 20 mM Hepes, 50 mM NaCl, 5% glycerol, 1 mM TCEP, with or without 1 M urea, pH 7.5.
Assay [2] addresses steroid receptor coactivator 3 (SRC3), full-length, Strep II tagged (human) (UniProt Q9Y6Q9). The description is as above.

Chain of progesterone receptor isoform A (PR-A), full-length, Strep II tagged (human) (P06401 165-933): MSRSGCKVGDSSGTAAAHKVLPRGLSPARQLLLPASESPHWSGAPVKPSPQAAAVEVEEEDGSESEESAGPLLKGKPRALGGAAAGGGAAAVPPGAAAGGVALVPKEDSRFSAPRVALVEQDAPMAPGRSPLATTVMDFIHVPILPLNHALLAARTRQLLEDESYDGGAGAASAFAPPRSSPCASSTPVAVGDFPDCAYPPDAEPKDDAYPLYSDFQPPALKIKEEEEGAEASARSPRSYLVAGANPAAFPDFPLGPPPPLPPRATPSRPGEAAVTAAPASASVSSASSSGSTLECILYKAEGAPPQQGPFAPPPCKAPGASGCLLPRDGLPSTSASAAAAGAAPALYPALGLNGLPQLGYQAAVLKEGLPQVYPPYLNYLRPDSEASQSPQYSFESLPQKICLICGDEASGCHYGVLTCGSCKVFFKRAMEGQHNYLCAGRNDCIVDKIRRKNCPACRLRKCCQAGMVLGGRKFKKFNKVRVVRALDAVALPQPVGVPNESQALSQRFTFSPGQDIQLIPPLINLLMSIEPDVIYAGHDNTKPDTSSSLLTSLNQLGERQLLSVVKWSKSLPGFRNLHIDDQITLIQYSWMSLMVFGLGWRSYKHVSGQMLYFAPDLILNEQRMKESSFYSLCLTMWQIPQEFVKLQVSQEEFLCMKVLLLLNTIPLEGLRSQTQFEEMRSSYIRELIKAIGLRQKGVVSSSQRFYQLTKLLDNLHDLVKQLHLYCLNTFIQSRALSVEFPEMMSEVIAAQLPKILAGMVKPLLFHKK
Chain of steroid receptor coactivator 3 (SRC3), full-length, Strep II tagged (human) (Q9Y6Q9 whole entry): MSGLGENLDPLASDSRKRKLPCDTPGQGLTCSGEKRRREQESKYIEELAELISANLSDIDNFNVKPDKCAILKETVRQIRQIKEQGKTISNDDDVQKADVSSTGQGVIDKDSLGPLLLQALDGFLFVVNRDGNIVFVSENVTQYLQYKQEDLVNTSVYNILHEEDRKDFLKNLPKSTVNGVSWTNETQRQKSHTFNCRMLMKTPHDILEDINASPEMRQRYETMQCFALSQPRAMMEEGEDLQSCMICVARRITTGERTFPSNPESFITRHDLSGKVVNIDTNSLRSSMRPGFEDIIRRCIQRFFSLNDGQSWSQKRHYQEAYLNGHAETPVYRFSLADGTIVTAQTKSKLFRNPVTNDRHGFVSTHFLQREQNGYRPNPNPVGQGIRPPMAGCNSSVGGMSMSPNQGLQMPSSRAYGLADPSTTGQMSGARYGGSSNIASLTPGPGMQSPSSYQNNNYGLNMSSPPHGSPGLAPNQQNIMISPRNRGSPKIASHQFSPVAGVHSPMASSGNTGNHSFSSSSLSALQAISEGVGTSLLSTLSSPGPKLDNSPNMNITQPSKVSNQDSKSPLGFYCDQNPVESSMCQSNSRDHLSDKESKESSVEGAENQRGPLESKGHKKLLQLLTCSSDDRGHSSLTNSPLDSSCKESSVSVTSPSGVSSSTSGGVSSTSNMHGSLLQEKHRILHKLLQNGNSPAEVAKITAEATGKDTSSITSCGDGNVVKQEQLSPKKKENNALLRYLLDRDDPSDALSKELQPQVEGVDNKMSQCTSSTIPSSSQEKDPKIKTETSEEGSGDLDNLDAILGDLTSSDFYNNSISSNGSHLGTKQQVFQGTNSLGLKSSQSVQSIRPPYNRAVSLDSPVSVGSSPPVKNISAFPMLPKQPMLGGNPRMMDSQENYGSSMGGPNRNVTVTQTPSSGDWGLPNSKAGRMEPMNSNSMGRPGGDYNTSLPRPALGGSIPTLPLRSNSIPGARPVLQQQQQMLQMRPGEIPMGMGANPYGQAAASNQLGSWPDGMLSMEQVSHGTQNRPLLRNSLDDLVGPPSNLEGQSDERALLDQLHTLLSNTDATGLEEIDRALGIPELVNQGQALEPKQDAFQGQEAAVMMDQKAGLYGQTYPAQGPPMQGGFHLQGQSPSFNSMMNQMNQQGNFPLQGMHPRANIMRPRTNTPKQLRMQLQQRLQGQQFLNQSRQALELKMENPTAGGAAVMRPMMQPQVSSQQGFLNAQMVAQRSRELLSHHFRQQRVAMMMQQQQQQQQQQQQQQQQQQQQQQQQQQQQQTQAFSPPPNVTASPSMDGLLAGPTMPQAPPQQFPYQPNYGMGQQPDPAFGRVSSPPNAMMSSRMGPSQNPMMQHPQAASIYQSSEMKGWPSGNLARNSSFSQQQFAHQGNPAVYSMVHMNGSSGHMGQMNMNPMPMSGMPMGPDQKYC

Consider “histone acetyltransferase p300, full-length, Strep II tagged, Q09472 1-2414”, for which the figures for the stoichiometry N in assay [1] and in assay [2] were 0.5 and 1, respectively.
